Source: article PMC4380928

How the values were obtained:
Experiment in all cases: peptide microarray probed with GST protein
Conditions in all cases: reference: unphosphorylated Y124 15-mer; sites Y124
GRB2 1-217 = GRB2 1-217 (UniProt P62993)
GRB2 SH2, 75-160 = GRB2 SH2, 75-160 (UniProt P62993)
PIK3R3 (p55γ) 1-461 = PIK3R3 (p55γ) 1-461 (UniProt Q92569)

Measured: binding against the reference

TSPAN2 (tetraspanin 2) 15-mers, each centred on one tyrosine (from UniProt O60636) pY124 15-mer
gained: all assays above
